Results reported in PMC5861120, “Architecture of the Saccharomyces cerevisiae NuA4/TIP60 complex” (Nature Communications, 2018).

T1: Purified native TINTIN (Eaf5-Eaf7-Eaf3) (S. cerevisiae, UniProt P39995 1-279; P53911 1-425; Q12432 1-401)
T1 construct: Eaf5, S. cerevisiae; Eaf7, S. cerevisiae; Eaf3, S. cerevisiae; The pull-down blots used anti-TAP and anti-Eaf3, so one subunit probably carries a TAP tag or its remnant; also called TINTIN subcomplex; source: purified native TINTIN; copies: + +
T1 sequence (looked up) 1: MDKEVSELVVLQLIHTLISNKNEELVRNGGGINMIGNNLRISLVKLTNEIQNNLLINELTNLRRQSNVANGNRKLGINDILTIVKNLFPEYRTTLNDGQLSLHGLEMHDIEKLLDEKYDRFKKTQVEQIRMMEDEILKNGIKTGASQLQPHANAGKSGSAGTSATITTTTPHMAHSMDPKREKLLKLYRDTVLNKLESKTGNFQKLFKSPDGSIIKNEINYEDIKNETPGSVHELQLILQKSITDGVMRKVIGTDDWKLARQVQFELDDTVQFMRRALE
T1 sequence (looked up) 2: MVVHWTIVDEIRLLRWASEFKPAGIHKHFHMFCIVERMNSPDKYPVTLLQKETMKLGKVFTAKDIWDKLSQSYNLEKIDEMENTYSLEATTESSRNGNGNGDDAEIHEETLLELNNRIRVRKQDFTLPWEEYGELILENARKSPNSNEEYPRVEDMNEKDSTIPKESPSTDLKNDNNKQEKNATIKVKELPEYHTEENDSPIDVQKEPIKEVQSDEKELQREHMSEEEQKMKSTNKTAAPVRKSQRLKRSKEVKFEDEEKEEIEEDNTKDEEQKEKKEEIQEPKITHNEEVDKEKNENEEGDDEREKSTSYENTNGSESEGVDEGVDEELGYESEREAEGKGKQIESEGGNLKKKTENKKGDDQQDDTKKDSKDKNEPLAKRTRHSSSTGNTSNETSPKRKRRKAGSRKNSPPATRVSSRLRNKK
T1 sequence (looked up) 3: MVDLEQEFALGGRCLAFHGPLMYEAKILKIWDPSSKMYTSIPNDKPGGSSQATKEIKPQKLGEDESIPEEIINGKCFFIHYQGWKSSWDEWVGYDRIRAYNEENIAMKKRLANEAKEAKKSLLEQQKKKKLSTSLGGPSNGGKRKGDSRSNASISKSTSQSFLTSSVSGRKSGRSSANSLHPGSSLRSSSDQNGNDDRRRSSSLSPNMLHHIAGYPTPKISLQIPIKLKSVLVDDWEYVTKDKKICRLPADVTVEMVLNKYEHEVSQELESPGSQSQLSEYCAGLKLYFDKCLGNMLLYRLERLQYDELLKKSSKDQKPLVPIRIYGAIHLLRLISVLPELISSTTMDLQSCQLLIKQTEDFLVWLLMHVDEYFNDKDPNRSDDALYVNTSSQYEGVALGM

T2: Recombinant His-tagged Tra1 (3200–3744) (S. cerevisiae, UniProt P38811 3200-3744)
T2 construct: Tra1, S. cerevisiae, residues 3200–3744 (FRB-PI3K-FATC); also called recombinant Tra1 C-terminus (FRB-PI3K-FATC); source: recombinant, bacterial culture, purified (Ni-NTA, eluted with imidazole)
T2 sequence (looked up): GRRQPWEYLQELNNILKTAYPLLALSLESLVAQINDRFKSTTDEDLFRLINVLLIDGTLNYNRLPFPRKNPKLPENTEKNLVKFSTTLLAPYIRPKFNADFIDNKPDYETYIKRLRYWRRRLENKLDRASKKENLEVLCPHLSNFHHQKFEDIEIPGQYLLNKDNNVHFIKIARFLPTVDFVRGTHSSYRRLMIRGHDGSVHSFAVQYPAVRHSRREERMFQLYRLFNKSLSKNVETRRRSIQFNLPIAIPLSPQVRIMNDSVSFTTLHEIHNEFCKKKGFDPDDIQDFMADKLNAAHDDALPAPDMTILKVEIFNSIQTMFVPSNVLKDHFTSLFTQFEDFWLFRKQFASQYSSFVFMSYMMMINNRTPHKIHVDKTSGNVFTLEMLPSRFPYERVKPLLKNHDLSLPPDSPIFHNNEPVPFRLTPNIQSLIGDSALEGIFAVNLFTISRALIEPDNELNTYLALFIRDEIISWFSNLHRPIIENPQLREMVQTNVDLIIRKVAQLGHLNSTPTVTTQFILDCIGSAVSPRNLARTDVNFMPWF


Tests used:
[1] = biological target: T1, Purified native TINTIN (Eaf5-Eaf7-Eaf3); experiment: pull-down; 300–600 ng GST-tagged Eaf1 fragments immobilised on glutathione sepharose, incubated with purified native TINTIN or His-tagged Tra1 (3200–3744) for 3–4 h at 4 °C; binding buffer 25 mM HEPES pH 7.5, 100 mM NaCl, 10% glycerol, 0.1% Tween-20; western blotting (anti-TAP, anti-Eaf3, anti-His); conditions: both partners purified
[2] = biological target: T2, Recombinant His-tagged Tra1 (3200–3744); experiment: as above; conditions: both partners purified

| binding result [1] | binding result [2] | Binder |
| --- | --- | --- |
| binds |  | GST-tagged Eaf1 (1–530) (domain or fragment, S. cerevisiae, UniProt Q06337 1-530, looked up, also called Eaf1 N-terminal half; N-terminal portion of Eaf1; source: recombinant, bacterial culture, held on glutathione sepharose beads) MSSRPSSAVPNSASLSEDQSSDRSKFPKADDLIDERDRKLTELYCVSRLNQLLELTDENKLRKEIDAFLKKNDIRRGIRFDEASLPKLLHTAATPITKKKLKDVNLINVPNQRLSDSKMSRELPENSENVSVKSESHFVPSHDNSIRENMMDSLRPAEKTGGMWNKRPLESTMGGEEERHEKRQKMQSQSLESSNNSEMASLPISPRPPVPNALAHYTYYENIEYPPADPTEVQPAVKFKDPLIKNIMAKEIDTSDHYNENNVDALETVFLLMNDYIPSKIPQALPLAELKYMSQTLPLINLIPRAHKALTTNIINNALNEARITVVGSRIEELRRLGLWSLRQPKRFIDPWKQHNTHQNILLEEAKWMQADFKEGHKYKVAICTAMAQAIKDYWTYGEICCVKRKTLLPGKENKLSDDGRISEKSGRPSDTSRNDSDISIAGKDDIGIIANVDDITEKESAAANDNDENGKNEAGAKSDFDFADGLLSQEGAHDQIISSIDTKLLLKKPSSSSEVVLIQHEVAASSALI |
|  | binds | GST-tagged Eaf1 (536–982) (domain or fragment, S. cerevisiae, UniProt Q06337 536-982, looked up, also called Eaf1 C-terminal half; C-terminal region of Eaf1; source: recombinant, bacterial culture, held on glutathione sepharose beads) KKELAPPFKLSIFVDELNTFEKTLIQDLPLYNGINEERPKKDDSLPFIPISKSVVSLDDNGFYKLLERQLIDEEPSISQLSKRRGMFYGNRRNHYLRPPAVPSLRYLQNRTPTIWLSEDDQELVKNINTYGYNWELISAHMTHRLTYSYLSNIERRTPWQCFERFVQLNERFNFSDLKGPRAHSAQQWLIEAHKFQQRQNRRISPLGVNTESIQRGHRRLRWASMFEAIRKCMKKRENTPRPNPTQPRKPLDCKNMKVPTPAEMSLLKAQRDEALRRDIQLRRTVKNRLQQRQQQSQQAHSSRAQSPIPSNGKSSSNLARNGQASAPRPNQKQYTEQDIIESYSRKLLEQKPDIGPEMALKAAKNYYRTLREQQQQLKQHQIQQQRQQLQEESSHVQQLQQLQPGSQAPPPKSSPSQSSLSNISNINSAPRIKSPTPQEILQRFQKQ |
